Laboratory results as given in the supplement of paper PMC12764529.
± gives the half width of the 95% confidence interval.

Assays:
[1] = folding stability dG unfold from chymotrypsin proteolysis; higher = more stable
Procedure, shortened: (§1)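 Mini-proteins designed to be under 80 residues and free of cysteine were carried in a PA-tagged cDNA display construct and digested with trypsin and with chymotrypsin. Each protease was applied at 11 threefold-diluted concentrations, alongside a no-protease condition, before sequencing. K50 came from Bayesian fitting of the sequencing counts, and unfolding free energy was obtained by comparing it with a sequence-predicted unfolded-state K50 and a shared folded-state K50, for each protease separately or for both together. Designs were retained only if their AlphaFold2 dimer inter-PAE exceeded 15.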

[2] = folding stability dG unfold (combined trypsin and chymotrypsin); higher = more stable
Procedure, shortened: as §1

[3] = folding stability dG unfold from trypsin proteolysis; higher = more stable
Procedure, shortened: as §1

| Sequence | folding stability dG unfold [1] [kcal/mol] | folding stability dG unfold [2] [kcal/mol] | folding stability dG unfold [3] [kcal/mol] |
| --- | --- | --- | --- |
| SAGGSAGGSAGPPDFQIYVDIETQRNPGNGRYYVTMKIYIGNKPIVEITIPAGEPLKIKFSAGGSAGGSAGG [r17_281_TrROS] | 3.9 ± 0.045 | 3.4 ± 0.14 | 2.66 ± 0.12 |
| SGPVPLPVEVTFEPNSETTVTLPSGRTYTVPTPPNGSATATADPATGVVTITVTSGSSTTTLTFPVPAELSA [r9_226_JUSTAS] | 0.712 ± 0.033 | 0.592 ± 0.051 | 0.361 ± 0.006 |
| SAGKAIFTVVPIIPKTGKKYSISKFEITLKEGEKIPIKAIADKIPPKNYIVETEIHPDHIHVTVYVLDGSAG [r5_269_TrMRF] | 1.61 ± 0.11 | 1.25 ± 0.17 | 0.665 ± 0.08 |
| SAGGSAGGSMIGTADGTPVPFEVTHAEVYEVTLPNGEKYYLIKAYDPSTGKYFVALIPAKDIASAGGSAGGS [r12_823_TrMRF] | 2.84 ± 0.052 | 2.8 ± 0.1 | 2.77 ± 0.11 |
| SAGGSAGGSAGGDPDERIPIKIEMWHPNKPYEHEFPVGMDLSDIADPFASDGFMVRIEISAGGSAGGSAGGS [r10_540_TrROS] | 1.26 ± 0.07 | 1.05 ± 0.14 | 0.795 ± 0.058 |
| SAGGGKTVVTTTPDGRTVVAAELPDGSVVAVATFPDAPVLATYNPETKTVTVAFFKGGKLVATASDSSSAGG [r13_748_TrMRF] | 0.855 ± 0.11 | 0.837 ± 0.13 | 0.698 ± 0.062 |
| SAGGSAGGSKPRLVLEIKIKAESEEEAREEVEKALQEKFGLKIKSVEIEREEDYITVRVEIEPSAGGSAGGS [r12_265_TrROS_Hall] | 2 ± 0.061 | 1.92 ± 0.23 | 2.26 ± 0.081 |
| SAGGSAGGSAGGMKKYKITVYDEKTGEKHTIEIEMSEEELEELAKKLAEKHNVKVRIEKVSAGGSAGGSAGG [r7_562_TrROS_Hall] | 4.27 ± 0.052 | 3.91 ± 0.062 | 2.73 ± 0.095 |
| SAGGAHEMEWKHEYELPPYRLKVELEWYYDPDGNPQPSIETIEIRPVPPPTIDAEDLPPEQAKENGIASAGG [r13_964_TrROS] | 1.23 ± 0.087 | 1.08 ± 0.38 | 1.13 ± 0.11 |
| SAGGSTTITLPDGRTATVEPDPNGVERYTVPGHPGVYIEKDPSTNKLTVTTVDPSSGSPVTSVIEESAGGSA [r2_477_JUSTAS] | -0.572 ± 0.44 | 0.0736 ± 0.15 | 0.243 ± 0.043 |
| SAGGSAGGNITPEAKKLVEELADQISEEFPNNGMDIEVEDITWQPDGNVVIRIRFNGWTIWIPVSAGGSAGG [r6_495_TrROS] | 2.25 ± 0.05 | 2.03 ± 0.16 | 1.44 ± 0.083 |
| SAGGSAKPVKVDTLVLTAPFESKEEAEKAVEEFAKAVAEKLPKDVKVEVEVKYDPETKTFTAVVKASAGGSA [r15_981_TrMRF] | 2.368 ± 0.018 | 2.34 ± 0.051 | 2.23 ± 0.093 |
| SAGGKIEIHPDTLVVRIEVENKDGSTEEITLELKGLTEEELEDLLKELAAQLPDPDVKVKIVEIRRLPSAGG [r13_29_TrROS_Hall] | 2.49 ± 0.12 | 2.43 ± 0.13 | 2.63 ± 0.13 |
| SKKITIEIELYRNPETKKLPLKLKAYNENGEPLGELEIEFTESPEEALEKALALAKELAESNDAEITFGLSA [r9_31_TrMRF] | 1.92 ± 0.036 | 1.76 ± 0.057 | 1.38 ± 0.041 |
| SNFPPGQQIKFTFRLPDNGMKIKIEVHVHPDGYVQVRMERENPDNGKRVKITFYVPGPTLDEILDFIEQFSA [r9_618_TrROS] | 3.852 ± 0.038 | 3.52 ± 0.08 | 2.97 ± 0.09 |
| SAGGSAGGSAGGEYEIVKIEKVKNENGELYYKMIIKDKKTNKEIEIYMSLEELKKLKPKSAGGSAGGSAGGS [r10_326_TrROS_Hall] | 3.85 ± 0.16 | 3.24 ± 0.18 | 2.05 ± 0.047 |
| SAGGMKLTPEAKKLAEELKKEGKKVKIEKKDGYYVLTVDGKVYKSKEDMEKAAKDPNVKKVIVIKLPSAGGS [r16_275_TrROS_Hall] | 1.95 ± 0.18 | 1.46 ± 0.18 | 0.519 ± 0.13 |
| SAGGMTKTESEVFFEPDGSSSSAKVTITVDDGPLTANVTISPDSVTTTINYPDGSTVTTTTSVSPAASAGGS [r16_108_JUSTAS] | 1.48 ± 0.052 | 1.27 ± 0.13 | 0.942 ± 0.081 |
| SAGGKEVKVIRITMSRDQLRDLIEKLFGKPLSLEEILKKLPPGAKVEIRVEENENGEVTVEIVIVKKPSAGG [r13_869_TrROS_Hall] | 4.14 ± 0.11 | 3.99 ± 0.26 | 3.2 ± 0.23 |
| SAGGSAGGSANFKILAVEVQPAGNGIMVRAIIEFPDGWIIKFSFWFRNDGIKINIEIVPLDDSAGGSAGGSA [r18_79_TrROS] | 5.7 ± 0.12 | 5.68 ± 0.17 | 4.7 ± 0.15 |
| SAGGSAGGSADGPPTFRVRIKWKNGKKMKFEIDPNDSLEQVADPLSKLPGIDDIKDLEIYPSAGGSAGGSAG [r3_308_TrROS] | 1.05 ± 0.44 | 0.764 ± 0.18 | 0.725 ± 0.13 |

| Sequence | folding stability dG unfold [1] [kcal/mol] | folding stability dG unfold [2] [kcal/mol] | folding stability dG unfold [3] [kcal/mol] |
| --- | --- | --- | --- |
| SAGMEFPANTTVELTLTLTFPVPLPGEGTGPVTLTYTLRLEVRPKPRIPLPDPALRELLERLGLSPDLLSAG [r5_624_TrMRF] | 4.88 ± 0.13 | 4.43 ± 0.4 | 3.88 ± 0.39 |
| SAGGSAGGSAGGMKTIVLPNVTPEEAEALAAELEKKYPGRTVNVTYVPENPTTVVITVGSAGGSAGGSAGGS [r10_852_JUSTAS] | 2.54 ± 0.12 | 2.41 ± 0.087 | 2.21 ± 0.085 |
| SAGGMIEIIPNPPIIIVRDASTNEISVYNIDAPPGSITRVELTSDGSILIYNPATGKVLVLPKSDIKSAGGS [r16_410_TrMRF] | 1.74 ± 0.071 | 1.62 ± 0.077 | 1.33 ± 0.043 |
| SAGGKKKKIIIVLSKEEAEKKAEELKKELEKKGIEVEEVKVVEGMSEEEVKELAEKEKKPVIVIEPKSAGGS [r16_94_TrROS_Hall] | 1.27 ± 0.075 | 0.813 ± 0.14 | -0.158 ± 0.077 |
| SAGGSAGGSAGGPPDDWILMIEIVTITIEMKYKDGGKEVERKMEILVIEIAIIPPDDLPSAGGSAGGSAGGS [r10_300_TrROS] | 3.59 ± 0.29 | 3.11 ± 0.37 | 2.21 ± 0.2 |
| SAGGELTEEQRKRLEEERRRREEEERRRQAAPVKVTVTVEFDPETGEVRVRVFNENGELVAEARFKVESAGG [r13_247_TrROS_Hall] | 3.77 ± 0.14 | 3.17 ± 0.19 | 2.08 ± 0.092 |
| SAGGSAPAEKVAQTLLDLGFTEVRVEEDPETDLVTVEVIDPDGTRLEIRVDPKDPRIVEIRPRSLKSAGGSA [r15_648_TrMRF] | -0.0972 ± 0.15 | -0.154 ± 0.16 | -0.351 ± 0.14 |
| GMVEVTEERFEPETGKRIVTIRAPGRDLTVTFDPSTGIATFYDPSDGRTFTVPFTSLEEAVEAAKELALEES [r1_177_JUSTAS] | 4.81 ± 0.11 | 4.47 ± 0.11 | 3.1 ± 0.07 |
| SAGGSAMPKYVISGIYRLPDKTLFFDYVIPPGLAENPERVKELAEEIRELLEQLGYPAVDFKIEPVSAGGSA [r15_781_TrMRF] | 2.09 ± 0.065 | 1.99 ± 0.098 | 1.65 ± 0.043 |
| SAGMPKPLVLPVVLPDDGATVEVVFDPVEKRIEIRVFKPGHRERAREFAEGIAALFEELGYEVEITDDSAGG [r19_354_TrMRF] | 1.27 ± 0.091 | 1.91 ± 0.12 | 2.3 ± 0.084 |
| SAGGSAGGSKKKKKITIEILIKLKPGESPEEIAKKLEEKLGLKVKKVEVVKENGYYLVKIEIESAGGSAGGS [r20_188_TrROS_Hall] | 3.26 ± 0.044 | 2.85 ± 0.084 | 1.52 ± 0.038 |
| SMIKPDEVVEKIEFTFPDGVAGDTRTFPVPEGSVIVYIDLGEPVYVMEILEDGSVKIEPVPEEVAKELAKSA [r9_1144_TrMRF] | 0.115 ± 0.1 | 0.3 ± 0.12 | 0.37 ± 0.048 |
| SAGPVVEVKPLETQALPDGSVRVVAEVTIKDPNSEKTTVVTVEATARVAPDGRPVSIEEIVEKAIKELKSAG [r5_604_JUSTAS] | 1.26 ± 0.046 | 1.06 ± 0.057 | 0.801 ± 0.043 |
| SAVPAEGMSPEEAAALAEEVREAFEAEVKAAGGPIPADTVVTVDYALEGSPVTITLTFTTPDSVSTTVASAG [r14_501_JUSTAS] | 0.57 ± 0.079 | 0.906 ± 0.06 | 1.12 ± 0.045 |
| SAGAATINPNPLTLEIESPDGTKYTVSPEEVQKIKDELEAKGKPPTLEEILNEIKKRFPNWRVSYSPESAGG [r19_46_JUSTAS] | 3.59 ± 0.04 | 3.44 ± 0.058 | 3.06 ± 0.076 |
| SAGGKEFIEKLGNNATIEIDTPNGGKVKINLKIEKVKPGKYVIKGEVTVYNPNTNKPVKFPYTLTIESAGGS [r8_473_TrMRF] | 3.75 ± 0.076 | 3.13 ± 0.18 | 2.39 ± 0.2 |
| GPPLPVEVDAEVDVVPLPGGPALVVRRPVRFPVTRRIVVVEVVRLPDGSVVARVDVYDPGDGRPRTFTLPLS [r1_261_TrMRF] | 2.373 ± 0.021 | 1.9 ± 0.043 | 0.795 ± 0.04 |
| SKLKPGDIVKLENGEYYRIKKIEISYDKETKEFTIKAEIEPAPPVETETETKTNADGSTETVTKTKVELPSA [r9_914_TrROS_Hall] | 2.366 ± 0.021 | 1.95 ± 0.042 | 0.701 ± 0.061 |
| SAGGMEFTPDQFLIIVLGLPDDTLEVAIIPAGDIEKAFEELGFPLEEVDILEIVEADLTPEEAEELAESAGG [r13_850_TrMRF] | 1.55 ± 0.046 | 1.68 ± 0.088 | 1.81 ± 0.1 |
| SAGGSAGGSAGGEIVIPVDGKLVVIKLKNGKKITVPVEDLKELLKKLGIKNAKIEVVPAKSAGGSAGGSAGG [r7_235_TrROS_Hall] | 2.82 ± 0.049 | 2.56 ± 0.17 | 1.8 ± 0.088 |
| SAGGSAGGIWIPVPDGYWIKIEMPDNNGEPKATHEMDSPADVEEALEEMPPDNLTKVEIWPLPDSAGGSAGG [r6_705_TrROS] | 0.902 ± 0.21 | 0.532 ± 0.71 | 0.875 ± 0.16 |
